Data: patent US20210363266A1

Key:
[1] = molecular target: human 4-1BB on the reporter cell strain HEK293F-h4-1BB-NFkB (human) (UniProt Q07011); experiment: cell-based or functional assay
[2] = molecular target: human 4-1BB His protein (Sinobiological, Beijing #10041-H08H) (human) (UniProt Q07011); experiment: capture ELISA, antibody captured, biotinylated 4-1BB-his
Chain of human 4-1BB His protein (Sinobiological, Beijing #10041-H08H) (human) (Q07011 24-186 limits assumed): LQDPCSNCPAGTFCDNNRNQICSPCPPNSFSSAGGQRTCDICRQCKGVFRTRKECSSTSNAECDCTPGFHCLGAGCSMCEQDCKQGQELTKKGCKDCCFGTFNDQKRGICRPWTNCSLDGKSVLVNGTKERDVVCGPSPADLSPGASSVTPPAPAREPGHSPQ

Chain of human 4-1BB on the reporter cell strain HEK293F-h4-1BB-NFkB (human) (Q07011 24-255): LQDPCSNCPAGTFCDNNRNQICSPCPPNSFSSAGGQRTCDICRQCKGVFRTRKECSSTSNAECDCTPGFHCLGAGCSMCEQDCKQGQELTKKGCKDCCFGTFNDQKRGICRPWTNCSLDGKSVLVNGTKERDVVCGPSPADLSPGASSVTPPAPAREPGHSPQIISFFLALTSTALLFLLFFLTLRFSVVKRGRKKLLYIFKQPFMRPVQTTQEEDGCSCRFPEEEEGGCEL
Chain of Urelumab (BMS) (antibody) (VH): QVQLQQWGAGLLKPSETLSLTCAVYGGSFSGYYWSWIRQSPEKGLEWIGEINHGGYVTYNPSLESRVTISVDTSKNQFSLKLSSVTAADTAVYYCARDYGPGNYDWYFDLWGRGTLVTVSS
Chain of Urelumab (BMS) (antibody) (VL): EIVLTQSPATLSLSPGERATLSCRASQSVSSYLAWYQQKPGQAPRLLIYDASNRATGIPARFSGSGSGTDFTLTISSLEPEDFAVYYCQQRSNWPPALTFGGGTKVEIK

luciferase activity (antibody at 10 nM) [1] | EC50 [2] | Substance
1000 | – | MOR7480 (Pfizer) (antibody)
2190 | 0.192 µg/mL | Urelumab (BMS) (antibody)
290 | – | hIgG (antibody)
